Laboratory results reported in patent US20240424125A1 (Zymeworks, published 2024).

B1: v30384 (antibody, human IgG1, kappa)
heavy 1: EVQLLESGGGLVQPGGSLRLSCAVSGFSLSSYGVSWVRQAPGKGLEWIGAVNSGGSAYYADSVKGRSTISRDNSKNTVYLQMNSLRAEDTAVYYCARSGSGYPMDYLAIWGQGTLVTVSSASTKGPSVFPLAPSSKSTSGGTAALGCLVKDYFPEPVTVSWNSGALTSGVHTFPAVLQSSGLYSLSSVVTVPSSSLGTQTYICNVNHKPSNTKVDKKVEPKSCDKTHTCPPCPAPELLGGPSVFLFPPKPKDTLMISRTPEVTCVVVDVSHEDPEVKFNWYVDGVEVHNAKTKPREEQYNSTYRVVSVLTVLHQDWLNGKEYKCKVSNKALPAPIEKTISKAKGQPREPQVYVYPPSRDELTKNQVSLTCLVKGFYPSDIAVEWESNGQPENNYKTTPPVLDSDGSFALVSKLTVDKSRWQQGNVFSCSVMHEALHNHYTQKSLSLSPG
heavy 2: not shown
light: DYQMTQSPSSVSASVGDRVTITCRASQSIGDWLAWYQQKPGKAPKLLIYEASTLASGVPSRFSGSGSGTDFTLTISSVQPEDAATYYCQQGYGRSNVDNIFGGGTKVEVKRTVAAPSVFIFPPSDEQLKSGTASVVCLLNNFYPREAKVQWKVDNALQSGNSQESVTEQDSKDSTYSLSSTLTLSKADYEKHKVYACEVTHQGLSSPVTKSFNRGEC
notes: Humanized full-size IgG1/kappa antibody with heterodimeric Fc (HetFc); also called humanized variant v30384; parental humanized
B2: v30399 (antibody, human IgG1, kappa)
heavy 1: EVQVLESGGGLVQPGGSLRLSCAVSGFSLSSYGVSWVRQAPGKGLEWIGAVNSGGSAYYADWAKGRSTISRDNSKNTVYLQMNSLRAEDTAVYYCARSGSGYPMDYLAIWGQGTLVTVSSASTKGPSVFPLAPSSKSTSGGTAALGCLVKDYFPEPVTVSWNSGALTSGVHTFPAVLQSSGLYSLSSVVTVPSSSLGTQTYICNVNHKPSNTKVDKKVEPKSCDKTHTCPPCPAPELLGGPSVFLFPPKPKDTLMISRTPEVTCVVVDVSHEDPEVKFNWYVDGVEVHNAKTKPREEQYNSTYRVVSVLTVLHQDWLNGKEYKCKVSNKALPAPIEKTISKAKGQPREPQVYVYPPSRDELTKNQVSLTCLVKGFYPSDIAVEWESNGQPENNYKTTPPVLDSDGSFALVSKLTVDKSRWQQGNVFSCSVMHEALHNHYTQKSLSLSPG
heavy 2: not shown
light: DYQMTQSPSSVSASVGDRVTITCRASQSIGDWLAWYQQKPGKAPKLLIYEASTLASGVPSRFSGSGSGTDFTLTISSVQPEDAATYYCQQGYGRSNVDNIFGGGTKVEVKRTVAAPSVFIFPPSDEQLKSGTASVVCLLNNFYPREAKVQWKVDNALQSGNSQESVTEQDSKDSTYSLSSTLTLSKADYEKHKVYACEVTHQGLSSPVTKSFNRGEC
notes: Humanized IgG1/kappa, HetFc; also called 4bH4L

Legend:
[1] = target: T1, human FRα on cells (human, UniProt P15328 25-234); test: apparent Kd, flow cytometry on JEG-3 cells (endogenous FRα), as in Example 16
T1 construct: Transiently expressed on HEK293-6e, CHO-S or HEK293 microarray cells, or endogenous on JEG-3, HEC-1-A, IGROV-1, OVCAR-3, H2110, KB-HeLa and T-47D cells; also called human folate receptor alpha; FOLR1
T1 sequence (P15328 25-234 limits assumed): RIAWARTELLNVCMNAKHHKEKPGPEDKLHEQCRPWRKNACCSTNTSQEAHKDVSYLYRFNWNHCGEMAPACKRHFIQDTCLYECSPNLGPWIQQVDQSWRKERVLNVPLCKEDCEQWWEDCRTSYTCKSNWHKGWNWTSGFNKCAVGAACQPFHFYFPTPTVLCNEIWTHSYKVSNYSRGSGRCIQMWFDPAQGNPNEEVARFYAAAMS
Description: (§1) Briefly, cells were seeded at 50,000 cells/well in V-bottom 96-well plates and treated with antibody for 24 hours at 4° C. to prevent internalization. […] Following incubation and washing, fluorescence was detected by flow cytometry on a BD LSRFortessa™ Cell Analyzer (BD Biosciences, Franklin Lake, NJ) with 1,000 minimum events collected per well. AF647/APC-A GeoMean (fluorescence signal geometric mean, proportional to anti-Human AF647 binding) in live cell population was plotted using GraphPad Prism Version 9 (GraphPad Software, San Diego, CA).

[2] = target: T2, recombinant His-tagged human FRα (ACROBiosystems) (human, UniProt P15328 25-233); test: SPR (Biacore T200): hFRα amine-coupled to CM5 chip at medium antigen density, bivalent FSA injected, 1:1 Langmuir fit, mean of n=2
T2 construct: also called hFRα; hFRα antigen; not shown: His tag
T2 sequence (P15328 25-233 limits assumed): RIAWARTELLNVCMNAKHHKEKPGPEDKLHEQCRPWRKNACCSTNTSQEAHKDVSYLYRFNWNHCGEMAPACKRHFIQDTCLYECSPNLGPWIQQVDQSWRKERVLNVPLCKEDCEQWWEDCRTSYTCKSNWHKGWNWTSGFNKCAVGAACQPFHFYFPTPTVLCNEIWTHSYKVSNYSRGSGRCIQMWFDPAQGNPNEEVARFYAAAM
Description: (§2) CM5 Series S sensor chip, Biacore™ amine coupling kit (NHS, EDC and 1 M ethanolamine), and 10 mM sodium acetate buffers were purchased from GE Healthcare Life Science (Mississauga, ON, Canada). PBS running buffer with 0.05% Tween20 (PBST) was purchased from Teknova Inc. (Hollister, CA). Recombinant human FRα was purchased from ACRObiosystems (Newark, DE).
(§3) Screening of the variants for binding to hFRα antigen was conducted in two steps: capture of hFRα onto surface, followed by injection of three to five concentrations of variant. The hFRα surface was prepared on a CM5 Series S sensor chip by standard amine coupling methods as described by the manufacturer (GE Healthcare Life Science, Mississauga, ON, Canada). The immobilization of the hFRα was performed using Biacore™ T200 immobilization wizard with an amine coupling method aiming for resonance units (RUs) ranging from 5 to 200 RUs. Using multi-cycle kinetics, three to five concentrations of a two-fold dilution series of samples starting at 300 nM with a blank buffer control were injected at 50 uL/min for 180s with a 600s dissociation phase, resulting in a set of sensorgrams with a buffer blank reference. The hFRα surface was regenerated to prepare for the next injection cycle by one pulse of 10 mM glycine/HCl pH 1.5 for 30s at 30 uL/min. Blank-subtracted sensorgrams were analyzed using Biacore™ T200 Evaluation Software v3.0. The blank-subtracted sensorgrams were then fit to the 1:1 Langmuir binding model.

[3] = target: T2, recombinant His-tagged human FRα …; test: BLI (Octet RED96) as in Example 8: antibody captured, His-tagged hFRα as analyte, mean of n=2
Description: (§4) The assay buffer used was KB buffer (kinetics buffer, composed of PBS pH 7.4, 0.1% BSA, 0.02% Tween 20, 0.05% sodium azide) supplemented with 0.06% Tween 20 and in some instances also with 1% BSA. The experiment was conducted at 30° C. with a shake speed of 1000 rpm.
(§5) Data analysis was performed using Data Analysis Software 9.0 (ForteBio, Fremont CA). The reference-subtracted binding curves were globally fitted to the 1:1 interaction model to generate the binding kinetic parameters kₒₙ, koff, and the dissociation constant KD.

[4] = target: T2, recombinant His-tagged human FRα …; test: BLI (Octet RED96): antibody loaded on anti-human IgG Fc capture biosensors, His-tagged hFRα in solution. Six traces with fit lines plateau between about 0.06 and 0.36 nm during 0-400 s association and return to baseline by about 520 s. The legend prints the same globally fitted KD for all six traces (single run; the text prints only the mean of n=2).
Description: as §4, §5

[5] = target: T1, human FRα on cells; test: cell-based or functional assay
[6] = target: T1, human FRα on cells; test: apparent Kd, flow cytometry on IGROV-1 cells (endogenous FRα), as in Example 16
Description: as §1

[7] = target: T2, recombinant His-tagged human FRα …; test: BLI (Octet RED96): antibody on anti-human IgG Fc capture biosensor, His-tagged hFRα as analyte, 1:1 global fit, mean of n=2
Description: as §4, §5

[8] = target: T2, recombinant His-tagged human FRα …; test: SPR (Biacore T200): hFRα amine-coupled to CM5 chip at medium-low antigen density, bivalent FSA injected, 1:1 Langmuir fit, mean of n=2
Description: as §2, §3

[9] = target: T1, human FRα on cells; test: apparent Kd, flow cytometry on JEG-3 cells (endogenous FRα), 24 h at 4°C
Description: as §1

[10] = target: T1, human FRα on cells; test: apparent Kd, flow cytometry on HEC-1-A cells (endogenous FRα), 24 h at 4°C
Description: as §1

[11] = target: T2, recombinant His-tagged human FRα …; test: SPR (Biacore T200), high antigen density; end of the range tied to v30384 by Table 8.3
Description: as §3

[12] = target: T2, recombinant His-tagged human FRα …; test: SPR (Biacore T200): hFRα amine-coupled to CM5 chip at high antigen density, bivalent FSA injected, 1:1 Langmuir fit, mean of n=2
Description: as §2, §3

[13] = target: T2, recombinant His-tagged human FRα …; test: SPR (Biacore T200), high antigen density; end of the range tied to v30399 by Table 8.3
Description: as §3

Row | Binder | Kd [1] [nM] | Kd [2] [nM] | Kd [3] [nM] | Kd [4] [nM] | fold increase in internalized fluorescence compared to farletuzumab; IGROV-1 cells, 6-hour incubation, 5 nM [5] [fold] | fold increase in internalized fluorescence compared to farletuzumab; IGROV-1 cells, 6-hour incubation, 25 nM [5] [fold] | fold increase in internalized fluorescence compared to farletuzumab; IGROV-1 cells, 24-hour incubation, 5 nM [5] [fold] | fold increase in internalized fluorescence compared to farletuzumab; IGROV-1 cells, 24-hour incubation, 25 nM [5] [fold] | fold increase in internalized fluorescence compared to mirvetuximab; IGROV-1 cells, 6-hour incubation, 5 nM [5] [fold] | fold increase in internalized fluorescence compared to mirvetuximab; IGROV-1 cells, 6-hour incubation, 25 nM [5] [fold] | fold increase in internalized fluorescence compared to mirvetuximab; IGROV-1 cells, 24-hour incubation, 5 nM [5] [fold] | fold increase in internalized fluorescence compared to mirvetuximab; IGROV-1 cells, 24-hour incubation, 25 nM [5] [fold] | Kd [6] [nM] | Kd [7] [nM] | Kd [8] [nM] | Kd [9] [nM] | Kd [10] [nM] | fold lower KD in FSA compared to one-armed antibody (OAA) format [11] [fold] | Kd [12] [nM] | fold lower KD in FSA compared to one-armed antibody (OAA) format [13] [fold]
1 | B1 | 0.5 | 2.58 | 127 | 109 | 19.1 | 6.1 | 4.7 | 3.9 | 2.6 | 3.3 | 1.9 | 2.1 | 1.38 | 110 | 3.76 | 0.31 | 0.07 | 181 | 0.79 | 
2 | B2 |  | 2.67 |  |  |  |  |  |  |  |  |  |  |  | 69 | 3.71 |  |  |  | 0.709 | 116
